Laboratory results taken from the Human Domainome abundance scans (Beltran et al. 2025).

B1: Membrane-associated guanylate kinase, WW and PDZ domain-containing protein 2, residues 601 to 682; numbered along this chain, Q86UL8 (parent)
chain: AELMTLTIVKGAQGFGFTIADSPTGQRVKQILDIQGCPGLCEGDLIVEINQQNVQNLSHTEVVDILKDCPIGSETSLIIHRG

Variants of: B1
Experiment: abundance fitness (aPCA) (normalised: wild type 0, dead -1); higher = more abundant; growth selection in yeast, the domain comes from the species named
Settings: Homo sapiens

Abundance fitness, by site and new letter:
I8: P -0.09; W -0.063; N -0.282; H -0.113; E -0.52; Q -0.08
F15: V -0.003; Q -0.062; A -0.179; G -0.221; Y -0.048; N -0.144; D -0.118; W -0.002; C -0.111; K -0.322; R -0.266; E -0.141; M 0.039; S -0.143; L 0.004; P -0.063
Q13: P -0.001; F -0.084; K -0.06; T -0.038; E 0.016; H -0.161; V -0.067; G 0; M -0.104; R -0.017; D -0.062; I -0.218; A -0.037; W -0.101; C -0.06; Y -0.096; S -0.027
G14: L -0.105; Q -0.052; I -0.168; A -0.152; T -0.02; E -0.016; M -0.089; C -0.11; H -0.03; N 0.025; R -0.093; Y -0.071; F -0.21; D 0.07
F17: S -1.29; R -1.12; I -0.057; D -1.18; T -1.2; K -0.978; W -0.022; A -0.697; N -1.36; P -1.04; Q -1.07; L -0.124; E -0.75; H -0.881; G -1.11; M -0.105; C -0.303; Y -0.277
K10: L -0.239; I -0.185; H -0.14; A -0.108; W -0.446; F -0.372; V -0.073; G -0.125; D -1.29; Q -0.123; E -0.662; T -0.182; C -0.192; R -0.107; M -0.102; P -0.146; S -0.143
I19: Y -0.148; E -0.872; H 0.134; G -1.31; Q -0.708; W -0.203; T -0.169; C -0.335; L -0.012; P -0.023; S -0.634; A -0.542; R -1.16
Q26: T -0.007; A 0.063; H -0.124; F -0.194; W -0.105; G -0.032; R -0.032; N -0.139; C -0.039; S -0.071; E 0.016; K 0.038; V -0.025; D -0.176; P 0.045; L -0.028; Y 0.316; I -0.111
A20: N -0.142; S 0.003; K -0.026; V -0.11; I 0.203; M 0.228; R -0.172; E -0.147; Q 0.217; G -0.069
D21: F -0.208; N -0.105; E -0.023; H -0.068; Y -0.099; P -0.048; G -0.082; S -0.054; V -0.064; M 0.079; C -0.14; L 0.084; K -0.039; W -0.111; A -0.126
S22: C -0.117; N -0.39; F -0.105; R 0.03; K 0.062; W -0.056; Q 0.023; E -0.114; V -0.063; A 0.075; T -0.076; P -0.671; Y -0.04; G 0.03; L -0.049; D 0.048
T7: Q -0.085; P -0.04; Y -0.121; N 0.044; V -0.126; R -0.052; S -0.103
